The target of this assay is Peptide-3B (NME1 H118, 1-pTza) (mammalian). Nature of the assay: peptide dot blot array.

For the substance 1-pHis mAb SC1-1 (antibody), the lowest amount detected is 1 ng.
